Consider three molecules from PMC10845952, “Mass spectrometry and split luciferase complementation assays reveal the MecA protein interactome of Streptococcus mutans” (Microbiology Spectrum, 2024).

This test deals with T1, MecA fused to the RenG N-terminal domain (1-155) (S. mutans, UniProt Q8DW33 1-240).
T1 construct: adaptor protein MecA; S. mutans UA159; source: S. mutans, expressed in live cells; not shown: RenG luciferase N-terminal domain (1-155), C-terminal, kept
T1 sequence: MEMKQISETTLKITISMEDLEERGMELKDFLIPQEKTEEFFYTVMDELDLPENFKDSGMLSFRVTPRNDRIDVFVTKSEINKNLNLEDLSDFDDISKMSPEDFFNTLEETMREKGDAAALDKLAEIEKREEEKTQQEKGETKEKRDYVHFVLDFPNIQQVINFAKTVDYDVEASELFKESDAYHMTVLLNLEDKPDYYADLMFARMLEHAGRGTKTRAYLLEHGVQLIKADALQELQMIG
Nature of the test: split reporter (BiFC, NanoBiT). As to conditions: partners not purified.

B1: ThiI fused to the RenG C-terminal domain (156-314) (natural protein, S. mutans, UniProt Q8DUR1 1-405, looked up)
chain: MQYSEIMVRYGELSTKGKNRMRFINQLKRNMKHVLSIYPEVSIRADRDRAHIYLNGANYVPVAESLKQIFGIQAFSPSYKVEKSVPALEKAVQAIMVELHHEGLTFKISSKRSDHQFELDSRELNQVLGSAVFAVLPDIKAQMNHPNVNLKVEIREEAAYLSYENIKGAGGLPVGTAGKGMLMLSGGIDSPVAGYLALKRGVNIEAVHFASPPYTSPGALKKAQDLTRKLTKFGGNIQFIEVPFTEIQEEIKAKAPEAYLMTLTRRFMMRIADRIREERSGLVIINGESLGQVASQTLESMQAINAVTTTPVIRPVVTMDKLEIIDIAEKIDTFAISIQPFEDCCTIFAPDRPKTNPKIKNVEQYEARLDIEGLVARAVAGINITEITPQEESQDEVDVLIEDLL
notes: tRNA 4-thiouridine(8) synthase, ThiI; S. mutans UA159; also called Thil; not shown: RenG luciferase C-terminal domain (156-314), C-terminal, kept
For B1, the “relative binding affinity (%)” value was 8.92 ± 1.07%.

B2: XseA fused to the RenG C-terminal domain (156-314) (natural protein, S. mutans, UniProt Q8DVB5 1-447, looked up)
chain: MSDYLSVSSLTKYLKLKFDRDPYLERVYLTGQVSNFRRRPNHQYFSLKDEKAVIQATMWSGIYRKLGFELEEGMKINVIGRVQLYEPSGSYSIIIEKAEPDGIGALAVQFEQLKKKLAEAGYFDDRHKQRLSQFVKKIGVVTSPSGAVIRDIITTVSRRFPGVDILLFPTKVQGEGAAQEVADNIRLANERTDLDLLIVGRGGGSIEDLWAFNEEIVVQAIFESHLPIISSVGHETDTTLADFAADRRAATPTAAAELATPVTKADLLAFLKERQMRSYQAVMRLIRQKDEQVKKLQRSVIFRQPERLYDAYVQKLDHLRTHLLTKVRQVYDVYDSKEHLLRQRLLSFNLSGCIQRYQAQLKQDQRLLLSHMSSQYDSKLARFEKAQDALLSLDTTRIVARGYAIVQKDNHIIQSTQQIKKGDRLHLEMKDGQVQVEVENVKQEENI
notes: Exodeoxyribonuclease VII large subunit, XseA; S. mutans UA159; not shown: RenG luciferase C-terminal domain (156-314), C-terminal, kept
For the molecule B2, the “relative binding affinity (%)” value was found to be 3.16 ± 0.25%.

B3: DnaG with the RenG C-terminal domain (156-314) fused to its N-terminus (natural protein, S. mutans, UniProt Q8DUS6 1-592, looked up)
chain: MVVDKEKIKEIKDSINIVDVIGEVVSLSRSGRNYLGLCPFHKEKTPSFNVIEDRQFFHCFGCGRSGDVFKFVEDYRNISFLESVQVLAERSGINVTLQDKSQEVKKEHPHQKLFNINGDANKFYQAVLKTTKVGETARQYLYERGLTDELITYFKIGLAPNEYDYLYQAMLKKYDEDTIINSGLFNLSDSNSIYDAFRNRIMFPLTDEFGHIIGFSGRIWTEEDTSKKLAKYKNTRSTIIFNKSYELYHLDKARTAAKKEHELYLMEGFMDVIAAYRAGIPNAVASMGTALTPEHVKHLRKFTKKVILTYDGDKAGQNAIAKSLNLLSNMAVEIVRIPGQMDPDEFIKENSEEELEKLLKQARISSAEFWIEHLKPENIDNLQAEIDYVEKIAKVIAASPSITAQNTYINKVAEFLPDFDYLQVEQAVNNERLQMRSQISEQESANQQVLIDLPVTKQLTALTKAESQLFHRLLHHDYLLNEFRNRAHFKFTTPELQELYQILKTNGEINAYDLSQLSNQLQETYYRVLEENLPEEIAEDEIRQIEDQIDKCLQRQEMRKQSKAIRESSNHGDVDTAVEGLAALIAQKRNME
notes: also called N-DnaG
Regarding B3, the “relative binding affinity (%)” value worked out at 6.97 ± 0.32%.
